Where a chain is given by its changes, count along the chain named.
B1: ApoE4 N-terminal domain (NTD) as seen in the crystals grown from His-MBP-ApoE4M (domain or fragment, human, UniProt P02649 40-183, looked up)
chain: SGQRWELALGRFWDYLRWVQTLSEQVQEELLSSQVTQELRALMDETMKELKAYKSELEEQLTPVAEETRARLSKELQAAQARLGADMEDVRGRLVQYRGEVQAMLGQSTEELRVRLASHLRKLRKRLLRDADDLQKRLAVYQAG
notes: apolipoprotein E, isoform ApoE4 (R112/R158), human; only residues ~22-165 (NTD) were obtained in the structures; the five mutations lie outside that range; also called ApoE4 NTD; source: E. coli BL21(DE3), purified (Ni-NTA, SEC; no cleavage step)
B2: APOE3M-AP (domain or fragment, human, UniProt P02649 42-317, looked up)
chain: QRWELALGRFWDYLRWVQTLSEQVQEELLSSQVTQELRALMDETMKELKAYKSELEEQLTPVAEETRARLSKELQAAQARLGADMEDVCGRLVQYRGEVQAMLGQSTEELRVRLASHLRKLRKRLLRDADDLQKRLAVYQAGAREGAERGLSAIRERLGPLVEQGRVRAATVGSLAGQPLQERAQAWGERLRARMEEMGSRTRDRLDEVKEQVAEVRAKLEEQAQQIRLQAEAAQARLKSRFEPLAEDMQRQWAGQVEKVQAAEGTSAAPVPSDNH
notes: apolipoprotein E, isoform ApoE3, human, residues 1-23 (helices N1 and N2) deleted, with the five monomerizing mutations; Truncated variants were cloned into NdeI/BamHI of pET-21b; also called ApoEM-AP; aggregation-prone ApoEM; source: E. coli BL21(DE3), purified (Ni-NTA, 3C protease cleavage, SEC); not shown: His, N-terminal, cleaved; thioredoxin, N-terminal, cleaved
B3: APOE4M-AP (domain or fragment, human, UniProt P02649 42-317, looked up)
chain: B2 chain with C89R
notes: apolipoprotein E, isoform ApoE4, human, residues 1-23 (helices N1 and N2) deleted, with the five monomerizing mutations; Truncated variants were cloned into NdeI/BamHI of pET-21b; also called ApoEM-AP; aggregation-prone ApoEM; source: E. coli BL21(DE3), purified (Ni-NTA, 3C protease cleavage, SEC); not shown: His, N-terminal, cleaved; thioredoxin, N-terminal, cleaved

Columns and labels:
[1] = molecular target: the molecule itself; test: crystal structure; His-MBP-ApoE4M ~8 mg/ml, hanging drop vapour diffusion; four crystals in two space groups (P212121, P3121); dimeric unit of two NTDs (chains A and B) from crystal packing contacts
[2] = molecular target: the molecule itself; test: dynamic light scattering; ~0.2 mg/ml, room temperature, size distribution after SEC purification

| Protein | binding result [1] | binding result [2] |
| --- | --- | --- |
| B1 | binds | – |
| B2 | – | binds |
| B3 | – | binds |

Source: PMC10245438, “Domino-like effect of C112R mutation on ApoE4 aggregation and its reduction by Alzheimer’s Disease drug candidate” (Molecular Neurodegeneration, 2023)
